The values below come from the Human Domainome abundance scans (Beltran et al. 2025).

First the molecules themselves.
B1: DnaJ homolog subfamily C member 2, residues 451 to 503; numbered along this chain, Q99543 (parent)
chain: SKNWSEDDLQLLIKAVNLFPAGTNSRWEVIANYMNIHSSSGVKRTAKDVIGKA

± gives the uncertainty stated by the source.

Variants of B1 are the subject of this data set. Briefly: abundance fitness (aPCA) (normalised: wild type 0, dead -1); higher = more abundant; growth selection in yeast, the domain comes from the species named. The conditions noted are these: Homo sapiens.
In the case of SKNWSEDDLQLLIKAVNLMPAGTNSRWEVIANYMNIHSSSGVKRTAKDVIGKA [F19M], the abundance fitness was -0.572 ± 0.11.

In the case of SKNWSEDDLQLLIKAVNLYPAGTNSRWEVIANYMNIHSSSGVKRTAKDVIGKA [F19Y], the abundance fitness is -0.178 ± 0.11.

As to SKNWSEDDLQLLIKAVNLDPAGTNSRWEVIANYMNIHSSSGVKRTAKDVIGKA [F19D], the abundance fitness was -0.948 ± 0.18.

As for SKNWSEDDLQLLIKAVNLWPAGTNSRWEVIANYMNIHSSSGVKRTAKDVIGKA [F19W], the abundance fitness was -0.215 ± 0.077.

SKNWSEDDLQLLIKAVNLSPAGTNSRWEVIANYMNIHSSSGVKRTAKDVIGKA [F19S]: the abundance fitness was -0.622 ± 0.075.

Regarding SKNWSEDDLQLLIKAVNLPPAGTNSRWEVIANYMNIHSSSGVKRTAKDVIGKA [F19P], the abundance fitness is -1.11 ± 0.18.

For SKNWSEDDLQLLIKAVNLTPAGTNSRWEVIANYMNIHSSSGVKRTAKDVIGKA [F19T], the abundance fitness is -0.456 ± 0.083.

In the case of SKNWSEDDLQLLIKAVNLQPAGTNSRWEVIANYMNIHSSSGVKRTAKDVIGKA [F19Q], the abundance fitness is -0.86 ± 0.14.

As for SKNWSEDDLQLLIKAVNLEPAGTNSRWEVIANYMNIHSSSGVKRTAKDVIGKA [F19E], the abundance fitness was -1.06 ± 0.13.

With SKNWSEDDLQLLIKAVNLLPAGTNSRWEVIANYMNIHSSSGVKRTAKDVIGKA [F19L], the abundance fitness is -0.602 ± 0.07.

Regarding SKNWSEDDLQLLIKAVNLKPAGTNSRWEVIANYMNIHSSSGVKRTAKDVIGKA [F19K], the abundance fitness is -0.961 ± 0.14.

Consider SKNWSEDDLQLLIKAVNLVPAGTNSRWEVIANYMNIHSSSGVKRTAKDVIGKA [F19V], for which the abundance fitness was -0.102 ± 0.067.

Turning to SKNWSEDDLQLLIKAVNLCPAGTNSRWEVIANYMNIHSSSGVKRTAKDVIGKA [F19C], the abundance fitness was -0.586 ± 0.11.

As to SKNWSEDDLQLLIKAVNLRPAGTNSRWEVIANYMNIHSSSGVKRTAKDVIGKA [F19R], the abundance fitness is -0.91 ± 0.094.

For the variant SKNWSEDDLQLLIKAVNLHPAGTNSRWEVIANYMNIHSSSGVKRTAKDVIGKA [F19H], the abundance fitness is -0.093 ± 0.14.

Consider SKNWSEDDLQLLIKAVNLFMAGTNSRWEVIANYMNIHSSSGVKRTAKDVIGKA [P20M], for which the abundance fitness is -0.955 ± 0.094.

SKNWSEDDLQLLIKAVNLFCAGTNSRWEVIANYMNIHSSSGVKRTAKDVIGKA [P20C]: the abundance fitness was -0.555 ± 0.078.

With SKNWSEDDLQLLIKAVNLFSAGTNSRWEVIANYMNIHSSSGVKRTAKDVIGKA [P20S], the abundance fitness is -0.411 ± 0.059.

Consider SKNWSEDDLQLLIKAVNLFWAGTNSRWEVIANYMNIHSSSGVKRTAKDVIGKA [P20W], for which the abundance fitness was -0.975 ± 0.082.

For SKNWSEDDLQLLIKAVNLFQAGTNSRWEVIANYMNIHSSSGVKRTAKDVIGKA [P20Q], the abundance fitness was -0.328 ± 0.07.

As for SKNWSEDDLQLLIKAVNLFTAGTNSRWEVIANYMNIHSSSGVKRTAKDVIGKA [P20T], the abundance fitness was -0.607 ± 0.082.

Take SKNWSEDDLQLLIKAVNLFDAGTNSRWEVIANYMNIHSSSGVKRTAKDVIGKA [P20D]: the abundance fitness was -0.13 ± 0.098.

In the case of SKNWSEDDLQLLIKAVNLFFAGTNSRWEVIANYMNIHSSSGVKRTAKDVIGKA [P20F], the abundance fitness was -0.984 ± 0.11.

With SKNWSEDDLQLLIKAVNLFEAGTNSRWEVIANYMNIHSSSGVKRTAKDVIGKA [P20E], the abundance fitness was -0.358 ± 0.09.

Take SKNWSEDDLQLLIKAVNLFHAGTNSRWEVIANYMNIHSSSGVKRTAKDVIGKA [P20H]: the abundance fitness is -0.228 ± 0.089.

Regarding SKNWSEDDLQLLIKAVNLFIAGTNSRWEVIANYMNIHSSSGVKRTAKDVIGKA [P20I], the abundance fitness was -0.961 ± 0.13.

Consider SKNWSEDDLQLLIKAVNLFNAGTNSRWEVIANYMNIHSSSGVKRTAKDVIGKA [P20N], for which the abundance fitness is -0.292 ± 0.1.

For SKNWSEDDLQLLIKAVNLFVAGTNSRWEVIANYMNIHSSSGVKRTAKDVIGKA [P20V], the abundance fitness was -0.772 ± 0.074.

Regarding SKNWSEDDLQLLIKAVNLFRAGTNSRWEVIANYMNIHSSSGVKRTAKDVIGKA [P20R], the abundance fitness is -0.392 ± 0.053.

SKNWSEDDLQLLIKAVNLFAAGTNSRWEVIANYMNIHSSSGVKRTAKDVIGKA [P20A]: the abundance fitness is -0.571 ± 0.074.

With SKNWSEDDLQLLIKAVNLFGAGTNSRWEVIANYMNIHSSSGVKRTAKDVIGKA [P20G], the abundance fitness was -0.103 ± 0.066.

Consider SKNWSEDDLQLLIKAVNLFPYGTNSRWEVIANYMNIHSSSGVKRTAKDVIGKA [A21Y], for which the abundance fitness is -0.265 ± 0.1.

Turning to SKNWSEDDLQLLIKAVNLFPQGTNSRWEVIANYMNIHSSSGVKRTAKDVIGKA [A21Q], the abundance fitness stood at 0.049 ± 0.088.

In the case of SKNWSEDDLQLLIKAVNLFPPGTNSRWEVIANYMNIHSSSGVKRTAKDVIGKA [A21P], the abundance fitness is -0.094 ± 0.082.

Turning to SKNWSEDDLQLLIKAVNLFPEGTNSRWEVIANYMNIHSSSGVKRTAKDVIGKA [A21E], the abundance fitness is 0.066 ± 0.073.

With SKNWSEDDLQLLIKAVNLFPDGTNSRWEVIANYMNIHSSSGVKRTAKDVIGKA [A21D], the abundance fitness is -0.039 ± 0.091.

On to SKNWSEDDLQLLIKAVNLFPRGTNSRWEVIANYMNIHSSSGVKRTAKDVIGKA [A21R], for which the abundance fitness is -0.054 ± 0.055.

On to SKNWSEDDLQLLIKAVNLFPWGTNSRWEVIANYMNIHSSSGVKRTAKDVIGKA [A21W], for which the abundance fitness is -0.244 ± 0.064.

Consider SKNWSEDDLQLLIKAVNLFPCGTNSRWEVIANYMNIHSSSGVKRTAKDVIGKA [A21C], for which the abundance fitness is -0.117 ± 0.082.

For SKNWSEDDLQLLIKAVNLFPHGTNSRWEVIANYMNIHSSSGVKRTAKDVIGKA [A21H], the abundance fitness worked out at 0.083 ± 0.09.

Regarding SKNWSEDDLQLLIKAVNLFPSGTNSRWEVIANYMNIHSSSGVKRTAKDVIGKA [A21S], the abundance fitness is -0.029 ± 0.065.

Turning to SKNWSEDDLQLLIKAVNLFPIGTNSRWEVIANYMNIHSSSGVKRTAKDVIGKA [A21I], the abundance fitness is -0.185 ± 0.12.

For the variant SKNWSEDDLQLLIKAVNLFPVGTNSRWEVIANYMNIHSSSGVKRTAKDVIGKA [A21V], the abundance fitness is -0.142 ± 0.065.

For the variant SKNWSEDDLQLLIKAVNLFPLGTNSRWEVIANYMNIHSSSGVKRTAKDVIGKA [A21L], the abundance fitness was -0.079 ± 0.059.

As for SKNWSEDDLQLLIKAVNLFPGGTNSRWEVIANYMNIHSSSGVKRTAKDVIGKA [A21G], the abundance fitness was -0.122 ± 0.057.

Consider SKNWSEDDLQLLIKAVNLFPMGTNSRWEVIANYMNIHSSSGVKRTAKDVIGKA [A21M], for which the abundance fitness was found to be 0.005 ± 0.074.

As to SKNWSEDDLQLLIKAVNLFPNGTNSRWEVIANYMNIHSSSGVKRTAKDVIGKA [A21N], the abundance fitness is -0.217 ± 0.093.

Take SKNWSEDDLQLLIKAVNLFPFGTNSRWEVIANYMNIHSSSGVKRTAKDVIGKA [A21F]: the abundance fitness was -0.096 ± 0.086.

Take SKNWSEDDLQLLIKAVNLFPTGTNSRWEVIANYMNIHSSSGVKRTAKDVIGKA [A21T]: the abundance fitness was -0.016 ± 0.082.

Regarding SKNWSEDDLQLLIKAVNLFPKGTNSRWEVIANYMNIHSSSGVKRTAKDVIGKA [A21K], the abundance fitness was -0.018 ± 0.086.
